In patent US20210284688A1, “MUCUS-PENETRATING PEPTIDES AND SCREENING ASSAY” (BOARD OF REGENTS, THE UNIVERSITY OF TEXAS SYSTEM, priority 2016, published 2021):
Counter-ions that a name gives are not always drawn. Where no end group is shown, it is not given here.

How the values were obtained:
Figure 17 = test: Figure 17
From the text: Table printed on a drawing sheet, Figure 17
AK10 and Dextran 40 kDa are controls.
First reader's note: The Sample column holds peptide sequences with SEQ ID NOs as well as non-peptide controls; on the sheet the PBS/CM sub-heads stand in one merged head cell, split here into a second head row.

Figure 15 = test: Figure 15
From the text: Table printed on a drawing sheet, Figure 15

O=C1OC2(c3ccc(O)cc3Oc3cc(O)ccc32)c2ccccc21 [Fluorescein Na Salt]
De/10^-5 cm^2 s^-1 | CM (Figure 17): 1.05 10^-5 cm^2 s^-1

M13 ISLPSPTGGGS (SEQ ID NO: 29) (also: displayed on M13 phage)
De/10^-9 cm^2 s^-1 | CM (Figure 15): 4.00 10^-9 cm^2 s^-1

M13 SSQLSRPGGGS (SEQ ID NO: 30) (also: displayed on M13 phage)
De/10^-9 cm^2 s^-1 | CM (Figure 15): 1.72 10^-9 cm^2 s^-1

M13 YNSPTHHGGGS (SEQ ID NO: 31) (also: displayed on M13 phage)
De/10^-9 cm^2 s^-1 | CM (Figure 15): 1.45 10^-9 cm^2 s^-1
